Measured values from paper PMC9092470, “Understanding p300-transcription factor interactions using sequence variation and hybridization†” (RSC Chemical Biology, 2022).
No end group written: not given here.

Each substance was assayed against GST-tagged p300 CH1 domain (residues 330–420) (UniProt Q09472) (assay: fluorescence polarisation; fluorescence anisotropy by the fluorescence of GFP; GFP-HIF-1α 776–826 variants with GST-p300; 25 mM Tris–HCl, 150 mM NaCl, 1 mM DTT, pH 7.4; 1:1 model, each p300 site of the GST dimer taken as independent). Conditions: not given.
In the case of “GFP-HIF-1α 776–826 L795A D799A (from UniProt Q16665 776-826) (domain or fragment)”, the Kd is reported as 255 nM.
With “GFP-HIF-1α 776–826 L795A D799A L822A (from UniProt Q16665 776-826) (domain or fragment)” the Kd was 174 nM.
“GFP-HIF-1α 776–826 L818A (from UniProt Q16665 776-826) (domain or fragment)” was tested, and the Kd was 237 nM.
With “GFP-HIF-1α 776–826 L822A (from UniProt Q16665 776-826) (domain or fragment)” the Kd was 109 nM.
In the case of “GFP-HIF-1α 776–826 L795A D799A L818A L822A V825A (from UniProt Q16665 776-826) (domain or fragment)”, the Kd is reported as 153 nM.
“GFP-HIF-1α 776–826 V825A (from UniProt Q16665 776-826) (domain or fragment)” showed a Kd of 198 nM.
In the case of “GFP-HIF-1α 776–826 S797A (from UniProt Q16665 776-826) (domain or fragment)”, the Kd is reported as 37 nM.
Substance “GFP-HIF-1α 776–826 L818A L822A V825A (from UniProt Q16665 776-826) (domain or fragment)” has a Kd of 54 nM.
Substance “GFP-HIF-1α 776–826 L818A L822A D823A (from UniProt Q16665 776-826) (domain or fragment)” has a Kd of 247 nM.
Work on “GFP-HIF-1α 776–826 D799A (from UniProt Q16665 776-826) (domain or fragment)” yielded a Kd of 114 nM.
“GFP-HIF-1α 776–826 N803A (from UniProt Q16665 776-826) (domain or fragment)” gave a Kd of 120 nM.
“GFP-HIF-1α 776–826 L818A L822A (from UniProt Q16665 776-826) (domain or fragment)” was tested, and the Kd was 126 nM.
In the case of “GFP-HIF-1α 776–826 D799A E801A N803A (from UniProt Q16665 776-826) (domain or fragment)”, the Kd is reported as 590 nM.
“GFP-HIF-1α 776–826 E817A (from UniProt Q16665 776-826) (domain or fragment)” showed a Kd of 128 nM.
“GFP-HIF-1α 776–826 Q824A (from UniProt Q16665 776-826) (domain or fragment)” gave a Kd of 31 nM.
For “GFP-HIF-1α 776–826 E801A L822A (from UniProt Q16665 776-826) (domain or fragment)”, the Kd was 224 nM.
For “GFP-HIF-1α 776–826 L795A (from UniProt Q16665 776-826) (domain or fragment)”, the Kd was 118 nM.

Each substance was assayed against GST-p300 (p300 CH1 domain, residues 330–420) (Homo sapiens, UniProt Q09472) (assay: Fluorescence anisotropy direct titration of GFP-HIF-1α776–826 variants with GST-p300). Conditions: 50 nM GFP-HIF-1α776–826 variant, GST-p300 serial dilution, 25 mM Tris–HCl, 150 mM NaCl, 1 mM DTT, pH 7.4, 27 °C, 1:1 model, ± standard error of fitted value, technical triplicates.
Sequence of GST-p300 (p300 CH1 domain, residues 330–420) (Q09472 330-420): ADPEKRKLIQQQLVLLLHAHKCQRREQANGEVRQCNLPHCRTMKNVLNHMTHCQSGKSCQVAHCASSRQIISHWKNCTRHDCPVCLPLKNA
Format: binding
Description: To experimentally compare the predictions, we carried out an in vitro biophysical study of several HIF-1α sequence variants. We assessed predicted hot residues and their interactions with p300 using the NMR structure to visualize the structural basis behind the predictions (See ESI, ^† Fig. S2). These analyses helped refine a first series of alanine variants to prepare. […] HIF-1α776–826 sequence variants were recombinantly prepared based on the predictions to test their binding to the recombinantly prepared p300 (Fig. 2). Given the length of the peptide ([…]), this was considered advantageous as it obviates the need to chemically synthesise, label and purify multiple variants. As the C-TAD domain is unstructured in isolation it was recombinantly expressed as a fusion protein with GFP. The green-fluorescent protein (GFP) tag was used for fluorescence anisotropy (FA) experiments to determine the binding affinity of HIF-1α776–826 C-TAD variants to p300. As the CH1 domain of p300 is a small domain of 11 kDa it was recombinantly expressed as a fusion protein with GST to increase its size and thus the signal to noise in the FA experiments. We established an assay where the interaction between GFP-tagged wt HIF-1α776–826 and GST-tagged p300 was monitored by FA, using the fluorescence of GFP. GST dimerises with single digit nM Kd[61] (and in our hands exists as a dimer in size exclusion chromatography analyses, see ESI, ^† Fig. S15 for protein characterization data), thus two molecules of GFP-HIF-1α could bind to the GST-p300 dimer (Fig. 2a). We make the assumption that each p300 binding site behaves independently and analyse the binding isotherm using a 1 : 1 model.
Fig. 2 Biophysical analyses on the effects of HIF-1α sequence variant p300 binding affinity. (a) schematic depicting the equilibrium for interaction of GFP-HIF-1α776–826 variants and GST-p300 as studied by fluorescence anisotropy; (b) representative fluorescence anisotropy titration data for sAV and mAV GFP-HIF-1α776–826 peptides interacting with GST-p300 (25 mM Tris–HCl, 150 mM NaCl, 1 mM DTT, pH 7.4), error bars represent standard deviation of technical triplicates; (c) raw ITC data (upper) and fitted thermogram (lower) for the interaction of GFP-HIF-1α776–826 peptides with p300 (37 °C in 25 mM Tris–HCl, 150 mM NaCl, 1 mM DTT, pH 7.4) using 10 μM p300 in the cell and 100 μM GFP-HIF-1α776–826 variant in the syringe; error bars represent estimated integration errors (d) thermodynamic signatures for each interaction. […]
7.4 buffer or dialysed into 25 mM Tris, 150 mM NaCl, 1 mM DTT pH 7.4 buffer.
GSTp300 protein was serially diluted in buffer (25 mM Tris-HCl, 150 mM NaCl, 1mM DTT, pH 7.4) and GFP-HIF-1α (50nM final concentration) was added, the plates were read after 0 min, 60 min, 4 h and 24 h, and incubated at room temperature in between. Each experiment was run in triplicate and the fluorescence anisotropy measured using an EnVision 2103 MultiLabel plate reader (Perkin Elmer) with excitation at 480 nm and emission at 535 nm (30 nm bandwidths). The recorded temperature for all measurements was 27°C ± 1°C. In parallel, a control experiment was performed in which no GFP-HIF was added and the volume made up with additional buffer, this blank was deducted from the raw data for each of the three repeats.
The intensity was calculated for each point using eqn (1) and used to calculated anisotropy […]
using eqn (2). From a plot of anisotropy against GST-p300 concentration the minimum and maximum anisotropies were obtained using a logistic sigmoidal fit in OriginPro 8.6. This allowed the conversion to fraction bound (eqn (3)). The data were then fitted using eqn (4) in OriginPro 8.6 to determine the dissociation constant, Kd. […]
5 µl injections and 180 s spacing between injections, for 40 injections. Titrations were performed in 40 mM Na-phosphate, pH 7.5 100 mM NaCl, 1 mM DTT buffer except for GFP- […]
In the case of “L795A D799A: GFP-HIF-1α776–826 C-TAD multiple alanine variant ({GFP}-SDLACRLLGQSMDESGLPQATSYACEVNAPIQGSRNLLQGEELLRALDQVN; cysteine pairing not given here)”, the Kd is reported as 255 ± 44 nM.
“E801A L822A: GFP-HIF-1α776–826 C-TAD multiple alanine variant ({GFP}-SDLACRLLGQSMDESGLPQLTSYDCAVNAPIQGSRNLLQGEELLRAADQVN; cysteine pairing not given here)” gave a Kd of 224 ± 18 nM.
“L822A: GFP-HIF-1α776–826 C-TAD single alanine variant L822A ({GFP}-SDLACRLLGQSMDESGLPQLTSYDCEVNAPIQGSRNLLQGEELLRAADQVN; cysteine pairing not given here)” showed a Kd of 109 ± 66 nM.
“L795A D799A L818A L822A V825A: GFP-HIF-1α776–826 C-TAD multiple alanine variant ({GFP}-SDLACRLLGQSMDESGLPQATSYACEVNAPIQGSRNLLQGEEALRAADQAN; cysteine pairing not given here)” showed a Kd of 153 ± 19 nM.
With “D799A E801A N803A: GFP-HIF-1α776–826 C-TAD multiple alanine variant ({GFP}-SDLACRLLGQSMDESGLPQLTSYACAVAAPIQGSRNLLQGEELLRALDQVN; cysteine pairing not given here)” the Kd was 590 ± 302 nM.
For “S797A: GFP-HIF-1α776–826 C-TAD single alanine variant S797A ({GFP}-SDLACRLLGQSMDESGLPQLTAYDCEVNAPIQGSRNLLQGEELLRALDQVN; cysteine pairing not given here)”, the Kd was 37 ± 16 nM.
Substance “L818A L822A: GFP-HIF-1α776–826 C-TAD multiple alanine variant ({GFP}-SDLACRLLGQSMDESGLPQLTSYDCEVNAPIQGSRNLLQGEEALRAADQVN; cysteine pairing not given here)” has a Kd of 126 ± 33 nM.
“E817A: GFP-HIF-1α776–826 C-TAD single alanine variant E817A ({GFP}-SDLACRLLGQSMDESGLPQLTSYDCEVNAPIQGSRNLLQGEALLRALDQVN; cysteine pairing not given here)” showed a Kd of 128 ± 11 nM.
In the case of “L795A D799A L822A: GFP-HIF-1α776–826 C-TAD multiple alanine variant ({GFP}-SDLACRLLGQSMDESGLPQATSYACEVNAPIQGSRNLLQGEELLRAADQVN; cysteine pairing not given here)”, the Kd is reported as 174 ± 45 nM.
Substance “L795A: GFP-HIF-1α776–826 C-TAD single alanine variant L795A ({GFP}-SDLACRLLGQSMDESGLPQATSYDCEVNAPIQGSRNLLQGEELLRALDQVN; cysteine pairing not given here)” has a Kd of 118 ± 19 nM.
In the case of “L818A L822A D823A: GFP-HIF-1α776–826 C-TAD multiple alanine variant ({GFP}-SDLACRLLGQSMDESGLPQLTSYDCEVNAPIQGSRNLLQGEEALRAAAQVN; cysteine pairing not given here)”, the Kd is reported as 247 ± 75 nM.
Work on “V825A: GFP-HIF-1α776–826 C-TAD single alanine variant V825A ({GFP}-SDLACRLLGQSMDESGLPQLTSYDCEVNAPIQGSRNLLQGEELLRALDQAN; cysteine pairing not given here)” yielded a Kd of 198 ± 37 nM.
“D799A: GFP-HIF-1α776–826 C-TAD single alanine variant D799A ({GFP}-SDLACRLLGQSMDESGLPQLTSYACEVNAPIQGSRNLLQGEELLRALDQVN; cysteine pairing not given here)” was tested, and the Kd was 114 ± 53 nM.
“L818A: GFP-HIF-1α776–826 C-TAD single alanine variant L818A ({GFP}-SDLACRLLGQSMDESGLPQLTSYDCEVNAPIQGSRNLLQGEEALRALDQVN; cysteine pairing not given here)” gave a Kd of 237 ± 40 nM.
Substance “Q824A: GFP-HIF-1α776–826 C-TAD single alanine variant Q824A ({GFP}-SDLACRLLGQSMDESGLPQLTSYDCEVNAPIQGSRNLLQGEELLRALDAVN; cysteine pairing not given here)” has a Kd of 31 ± 8 nM.
Substance “N803A: GFP-HIF-1α776–826 C-TAD single alanine variant N803A ({GFP}-SDLACRLLGQSMDESGLPQLTSYDCEVAAPIQGSRNLLQGEELLRALDQVN; cysteine pairing not given here)” has a Kd of 120 ± 17 nM.
“L818A L822A V825A: GFP-HIF-1α776–826 C-TAD multiple alanine variant ({GFP}-SDLACRLLGQSMDESGLPQLTSYDCEVNAPIQGSRNLLQGEEALRAADQAN; cysteine pairing not given here)” was tested, and the Kd was 54 ± 33 nM.
